± gives the uncertainty stated by the source.

From the Human Domainome abundance scans (Beltran et al. 2025) come the findings set out here.

The labels stand for the following.
B1: PDZ and LIM domain protein 2, residues 284 to 339; numbered along this chain, Q96JY6 (parent)
chain: HTCEKCSTSIANQAVRIQEGRYRHPGCYTCADCGLNLKMRGHFWVGDELYCEKHAR

In this data set the parent is B1. The data set is described as follows: abundance fitness (aPCA) (normalised: wild type 0, dead -1); higher = more abundant; growth selection in yeast, the domain comes from the species named. To be noted: Homo sapiens.
I17A: the abundance fitness is -0.341 ± 0.1.

Regarding I17H, the abundance fitness is -0.781 ± 0.13.

Regarding I17Y, the abundance fitness was -0.437 ± 0.18.

Turning to I17M, the abundance fitness is -0.372 ± 0.072.

In the case of I17T, the abundance fitness is -0.311 ± 0.079.

I17E: the abundance fitness was -0.325 ± 0.11.

I17R: the abundance fitness is -0.599 ± 0.074.

Regarding F43D, the abundance fitness worked out at 0.087 ± 0.066.

Regarding F43K, the abundance fitness was -0.381 ± 0.12.

F43M: the abundance fitness is -0.208 ± 0.13.

Take F43R: the abundance fitness is -0.138 ± 0.071.

As for F43Y, the abundance fitness is -0.145 ± 0.11.

Turning to F43V, the abundance fitness is -0.423 ± 0.093.

Regarding A31P, the abundance fitness is -0.238 ± 0.084.

On to A31H, for which the abundance fitness was -0.257 ± 0.1.

For the variant A31R, the abundance fitness was found to be 0.047 ± 0.067.

A31I: the abundance fitness was -0.454 ± 0.19.

Take A31S: the abundance fitness is -0.103 ± 0.085.

On to R40T, for which the abundance fitness is -0.009 ± 0.1.

R40I: the abundance fitness is -0.293 ± 0.12.

As for R40D, the abundance fitness was found to be 0.027 ± 0.16.

Turning to R40N, the abundance fitness came to 0.21 ± 0.13.

R40F: the abundance fitness was -0.156 ± 0.098.

In the case of R40G, the abundance fitness stood at 0.219 ± 0.061.

Regarding R40K, the abundance fitness was found to be 0.188 ± 0.079.

Consider R40H, for which the abundance fitness was 0.274 ± 0.11.

Turning to R40S, the abundance fitness is 0.079 ± 0.073.

As to H24N, the abundance fitness is -0.345 ± 0.12.

As to H24S, the abundance fitness was -0.264 ± 0.093.

On to H24W, for which the abundance fitness is -0.788 ± 0.17.

For the variant H24K, the abundance fitness is -0.193 ± 0.11.

For the variant H24A, the abundance fitness is -0.307 ± 0.098.

Turning to R21K, the abundance fitness was found to be 0.002 ± 0.077.

Take R21E: the abundance fitness was -0.286 ± 0.14.

R21M: the abundance fitness was determined as 0.035 ± 0.12.

For the variant R21L, the abundance fitness was -0.01 ± 0.067.

Take R21I: the abundance fitness is -0.046 ± 0.14.

On to R21T, for which the abundance fitness is 0.151 ± 0.12.

Consider N12I, for which the abundance fitness stood at 0.021 ± 0.12.

On to N12Y, for which the abundance fitness was -0.622 ± 0.092.

For the variant N12H, the abundance fitness is 0.219 ± 0.14.

With N12V, the abundance fitness is -0.206 ± 0.057.

On to N12A, for which the abundance fitness was -0.096 ± 0.097.

N12R: the abundance fitness was -0.73 ± 0.097.

Turning to N12G, the abundance fitness was -0.408 ± 0.063.

N12D: the abundance fitness is 0.595 ± 0.1.

Turning to N12M, the abundance fitness was -0.123 ± 0.11.

Take C51W: the abundance fitness is -1.05 ± 0.15.

With C51Y, the abundance fitness was -0.94 ± 0.3.

Turning to C51I, the abundance fitness is -0.523 ± 0.37.

In the case of V15R, the abundance fitness was -0.596 ± 0.12.

For the variant V15W, the abundance fitness was -0.875 ± 0.17.

In the case of V15C, the abundance fitness is -0.317 ± 0.15.

As to V15L, the abundance fitness was -0.248 ± 0.072.

As for V15A, the abundance fitness is -0.625 ± 0.16.

In the case of V15K, the abundance fitness was determined as 0.052 ± 0.13.

Regarding A14R, the abundance fitness is -0.466 ± 0.071.

On to A14D, for which the abundance fitness was -0.33 ± 0.2.

In the case of E19F, the abundance fitness is -0.672 ± 0.18.

On to E19G, for which the abundance fitness is -0.375 ± 0.1.

Take E19P: the abundance fitness was -0.211 ± 0.11.

As for E19V, the abundance fitness is -0.495 ± 0.093.

With L37R, the abundance fitness is -0.565 ± 0.076.

As to L37I, the abundance fitness is -0.322 ± 0.23.

With L37F, the abundance fitness is -0.262 ± 0.22.

As to L37C, the abundance fitness was -0.3 ± 0.13.

In the case of L37P, the abundance fitness was -0.442 ± 0.14.

Regarding G34Q, the abundance fitness was -0.03 ± 0.12.

Take G34C: the abundance fitness was -0.413 ± 0.1.

On to G34H, for which the abundance fitness came to 0.2 ± 0.17.

As to H42V, the abundance fitness was -0.064 ± 0.081.

As for H42P, the abundance fitness was -0.053 ± 0.15.

Consider H42A, for which the abundance fitness was -0.147 ± 0.076.

With H42T, the abundance fitness was 0.008 ± 0.14.

For H42G, the abundance fitness was -0.301 ± 0.057.

As to H42S, the abundance fitness worked out at 0.022 ± 0.065.

Consider H42C, for which the abundance fitness is -0.005 ± 0.14.

Turning to T8Q, the abundance fitness was determined as 0.056 ± 0.074.

In the case of T8L, the abundance fitness turned out to be 0.004 ± 0.063.

Turning to T8V, the abundance fitness came out at 0.189 ± 0.072.

Turning to C6Y, the abundance fitness is -0.743 ± 0.099.

For the variant C6H, the abundance fitness is -0.535 ± 0.19.

For the variant C6Q, the abundance fitness was -0.199 ± 0.16.

C6K: the abundance fitness is -0.264 ± 0.19.

As for C6E, the abundance fitness was -0.382 ± 0.17.

For C6V, the abundance fitness is -0.282 ± 0.09.

Q13F: the abundance fitness is -0.049 ± 0.16.

As for Q13A, the abundance fitness is -0.399 ± 0.14.

Turning to Q13Y, the abundance fitness was -0.775 ± 0.35.

Q13R: the abundance fitness was -0.826 ± 0.1.

Take Q13H: the abundance fitness was -0.767 ± 0.26.

Regarding Q13C, the abundance fitness is -0.216 ± 0.14.

Turning to Q13D, the abundance fitness came to 0.448 ± 0.14.

On to E52Q, for which the abundance fitness was -0.102 ± 0.22.

Consider E52V, for which the abundance fitness is -0.605 ± 0.15.

Turning to E52S, the abundance fitness was -0.352 ± 0.094.

Turning to E52W, the abundance fitness was -0.108 ± 0.11.

For the variant E52D, the abundance fitness is 0.029 ± 0.062.

For K5D, the abundance fitness was 0.181 ± 0.12.

As for K5V, the abundance fitness is 0.055 ± 0.074.

In the case of K5M, the abundance fitness is -0.05 ± 0.083.

With K5F, the abundance fitness was -0.467 ± 0.34.

Turning to K5Y, the abundance fitness was 0.508 ± 0.14.

On to K5S, for which the abundance fitness was -0.108 ± 0.096.

Turning to G46Y, the abundance fitness is 0.044 ± 0.17.

Turning to G46A, the abundance fitness was -0.206 ± 0.092.

As to G46C, the abundance fitness is -0.202 ± 0.16.

As for G46T, the abundance fitness is -0.202 ± 0.095.

For the variant R23E, the abundance fitness was -0.318 ± 0.14.

For the variant R23N, the abundance fitness was -0.173 ± 0.18.

Consider R23K, for which the abundance fitness was -0.315 ± 0.13.

Regarding R23Q, the abundance fitness was -0.509 ± 0.27.

In the case of R23H, the abundance fitness is -0.302 ± 0.074.

Regarding R23C, the abundance fitness is -0.238 ± 0.11.

As to R23D, the abundance fitness is -0.486 ± 0.11.

With R23V, the abundance fitness is -0.075 ± 0.065.

Turning to R23G, the abundance fitness is -0.457 ± 0.059.

G20W: the abundance fitness is -0.497 ± 0.12.

For the variant G20Q, the abundance fitness was -0.56 ± 0.22.

Regarding G20P, the abundance fitness was -0.63 ± 0.13.

Take G20I: the abundance fitness was -0.257 ± 0.091.

In the case of G20L, the abundance fitness was -0.452 ± 0.087.

Turning to R56L, the abundance fitness was found to be 0.797 ± 0.18.

Take R56W: the abundance fitness is -0.344 ± 0.084.

Turning to R56G, the abundance fitness came out at 0.068 ± 0.088.

In the case of G41T, the abundance fitness is -0.083 ± 0.095.

G41C: the abundance fitness is -0.408 ± 0.095.

With G41Y, the abundance fitness is -0.395 ± 0.2.

Take G41W: the abundance fitness was -0.797 ± 0.072.

For G41K, the abundance fitness was -0.169 ± 0.12.

In the case of K53N, the abundance fitness is -0.056 ± 0.094.

On to K53S, for which the abundance fitness stood at 0.184 ± 0.088.

With K53H, the abundance fitness was found to be 0.377 ± 0.14.

K53D: the abundance fitness came to 0.078 ± 0.14.

With K53F, the abundance fitness is -0.089 ± 0.19.

With K53T, the abundance fitness was 0.037 ± 0.12.

As for L49M, the abundance fitness was -0.205 ± 0.13.

As to L49Q, the abundance fitness is -0.174 ± 0.12.

For L49W, the abundance fitness is -0.39 ± 0.11.

As to L49T, the abundance fitness was -0.207 ± 0.097.

In the case of L49I, the abundance fitness was 0.117 ± 0.18.

L49E: the abundance fitness was -0.377 ± 0.081.

In the case of L49K, the abundance fitness is -0.733 ± 0.14.

As for L49F, the abundance fitness was -0.343 ± 0.19.

As for L49A, the abundance fitness was -0.159 ± 0.068.

Regarding A11F, the abundance fitness is -1.16 ± 0.49.

As to A11R, the abundance fitness was -0.231 ± 0.053.

Regarding A11T, the abundance fitness is -0.016 ± 0.11.

On to A11Q, for which the abundance fitness was -0.253 ± 0.14.

As for A11H, the abundance fitness is -0.085 ± 0.15.

As to A11Y, the abundance fitness was -0.643 ± 0.26.

For H1M, the abundance fitness came out at 0.268 ± 0.41.

As for H1R, the abundance fitness is -0.222 ± 0.11.

As to S7L, the abundance fitness is -0.09 ± 0.06.

As for S7P, the abundance fitness is -0.613 ± 0.2.

Turning to S7I, the abundance fitness was -0.047 ± 0.14.

In the case of S7N, the abundance fitness is -0.294 ± 0.18.

In the case of S7T, the abundance fitness stood at 0.008 ± 0.076.

Consider S7R, for which the abundance fitness was -0.216 ± 0.075.

Consider S7A, for which the abundance fitness amounted to 0.085 ± 0.079.

As for S7H, the abundance fitness is -0.212 ± 0.11.

Turning to C27K, the abundance fitness is -0.39 ± 0.088.

C27S: the abundance fitness is -0.598 ± 0.11.

Consider C27T, for which the abundance fitness was -0.442 ± 0.071.

Turning to C27V, the abundance fitness is -0.661 ± 0.12.

On to C27I, for which the abundance fitness is -0.904 ± 0.28.

As for C27M, the abundance fitness is -0.627 ± 0.099.
